In patent publication US6329500A, “Transforming growth factor-β binding site” (University of Virginia Patent Foundation, priority 1999, dated 2001):
Like-named read-outs stand apart in the source and are kept apart here.

Experiments:
[1] = molecular target: T1, TGF-β1 (Homo sapiens, UniProt P01137); experiment: 125I-TGF-β1 binding to immobilized α2M-MA, solution-phase competition; settings: mean ± S.E., n=4; 1 h at 22° C.
T1 construct: purchased R&D Systems (Minneapolis, Minn.)
Experimental: The wells were washed three times with PBS-T and blocked with PBS-T for 16 h at 4° C. […] In the presence of a fusion protein (FP) which binds TGF-β, the total concentration of TGF-β [βT ] was related to [βF ], at equilibrium, as follows: [βT ]=[βF ](1+[FP]/KI).

[2] = molecular target: T2, 125I-TGF-β1 binding to immobilized FP3 (Homo sapiens, UniProt P01023+P01137); experiment: Competition for 125I-TGF-β1 binding to PVDF-immobilized FP3; settings: unlabeled TGF-β1 0.2 μM
T2 construct: corresponding to amino acids 614-797 and 798-1082, respectively; made in house
Experimental: (§1) To block free sulfhydryls, some samples were treated with 5 mM IAM for 2 h at 25° C. Equivalent amounts of each protein ([…]) were subjected to SDS-PAGE on 10% slabs. IAM-treated GST-α2 M-peptide fusion proteins were subjected to SDS-PAGE as well. All samples were electro-transferred to PVDF membranes. The membranes were blocked with 5% milk and 0.1% Tween 20 in PBS for 12 h at 4° C. and then rinsed with 0.1% Tween 20 in PBS (PBS-T). […] Biophys. Res. Commun. […] NGF-β was radioiodinated with Iodogen, to a specific activity of 2-5 μCi/μg, using the method recommended by the manufacturer. […] After washing the membranes with PBS-T, bound radioligands were detected by Phosphorlmager analysis.

[3] = system: FBHE cells; experiment: Endothelial cell proliferation assay, TGF-β alone; assay type: cell-based, bovine; settings: TGF-β 10 pM, 1 h pulse
Experimental: Fetal bovine heart endothelial (FBHE) cells were cultured in DMEM supplemented with 10% FBS, 20 ng/ml acidic fibroblast growth factor, and 80 ng/ml basic fibroblast growth factor and passaged at subconfluence with trypsin-EDTA. To perform proliferation assays, the cells were plated at a density of 2×10^4 /well (24 well plates) in DMEM supplemented with 0.2% FBS. […] The fusion proteins were preincubated with the TGF-β for 15 min prior to addition to the cultures. At the completion of an incubation, the cultures were washed 3 times with serum-free DMEM and then allowed to incubate in DMEM with 0.2% FBS for 30 h. [^3 H]Thymidine was added for an additional 18 h; the cells were then harvested and [^3 H]thymidine incorporation was quantitated.

[4] = molecular target: T3, TGF-β2 (Homo sapiens, UniProt P61812); experiment: Ligand blot analysis of 125I-TGF-β2 binding to PVDF-immobilized proteins; settings: SDS-PAGE, PVDF membrane, 125I-TGF-β2 20 pM, 2 h at 25° C.
T3 construct: purchased Genzyme (Cambridge, Mass.)
T3 sequence (P61812 303-414 limits assumed): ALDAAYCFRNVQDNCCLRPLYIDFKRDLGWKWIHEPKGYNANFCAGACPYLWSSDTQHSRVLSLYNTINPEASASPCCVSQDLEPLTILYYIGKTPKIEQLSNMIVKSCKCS
Experimental: as §1

[5] = molecular target: T1, TGF-β1; experiment: Ligand blot analysis of 125I-TGF-β1 binding to PVDF-immobilized proteins; settings: SDS-PAGE, PVDF membrane, 125I-TGF-β1, 2 h at 25° C.
Experimental: as §1

[6] = molecular target: T4, NGF-β (Mus musculus, UniProt P01139); experiment: Ligand blot analysis of 125I-NGF-β binding to PVDF-immobilized proteins; settings: SDS-PAGE, PVDF membrane, 125I-NGF-β 50 pM, 2 h at 25° C.
T4 construct: from tissue; host or cells: male mouse submaxillary glands
Experimental: as §1

[7] = molecular target: T3, TGF-β2; settings: read-out: KD for the binding of TGF-β2; cited from earlier work
[8] = molecular target: T1, TGF-β1; settings: previously reported in references 31 and 33; mean ± S.E., n=4; read-out: IC50, 125I-TGF-β1 binding to immobilized α2M-MA; cited from earlier work
[9] = molecular target: T3, TGF-β2; settings: previously reported in references 31 and 33; mean ± S.E., n=4; read-out: IC50, 125I-TGF-β2 binding to immobilized α2M-MA; cited from earlier work

T1 sequence (P01137 279-390 limits assumed, species assumed): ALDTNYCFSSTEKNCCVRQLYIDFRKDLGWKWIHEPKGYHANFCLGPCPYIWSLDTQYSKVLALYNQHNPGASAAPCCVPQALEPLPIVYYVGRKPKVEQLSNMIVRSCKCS
T2 sequence (P01023 with tags, fused parts or gaps limits assumed): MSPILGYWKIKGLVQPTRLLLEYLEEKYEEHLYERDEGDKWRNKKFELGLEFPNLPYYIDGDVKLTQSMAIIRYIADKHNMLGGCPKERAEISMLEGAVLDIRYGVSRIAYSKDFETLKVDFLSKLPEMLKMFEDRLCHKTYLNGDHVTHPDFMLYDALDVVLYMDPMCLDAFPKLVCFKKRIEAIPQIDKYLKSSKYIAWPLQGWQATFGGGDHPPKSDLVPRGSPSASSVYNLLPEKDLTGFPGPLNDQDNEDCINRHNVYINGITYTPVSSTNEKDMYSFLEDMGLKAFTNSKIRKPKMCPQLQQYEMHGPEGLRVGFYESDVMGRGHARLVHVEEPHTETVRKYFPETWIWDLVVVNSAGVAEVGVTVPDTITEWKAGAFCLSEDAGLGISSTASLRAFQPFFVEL
T2 sequence (P01137 279-390 limits assumed): as the sequence (P01137 279-390 limits assumed, species assumed) above
T4 sequence (P01139 122-239 limits assumed): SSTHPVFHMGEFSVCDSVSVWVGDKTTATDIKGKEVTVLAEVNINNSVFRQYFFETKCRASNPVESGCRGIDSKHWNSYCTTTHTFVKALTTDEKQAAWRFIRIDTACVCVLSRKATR

In the case of “α2 M monomer: prepared by exposing native α2M to 2 mM DTT under non-denaturing conditions”, the IC50 [1] is reported as 360 ± 48 nM.

With “TGF-β1: transforming growth factor-β1 from R&D Systems” the “Inhibition of 125I-TGF-β1 binding to immobilized FP3” value [2] was 72±8% and the “Decrease of [3H]thymidine incorporation” value [3] was 69%.

For “α2 M: Human α2-macroglobulin, 718-kDa homotetrameric glycoprotein purified from plasma”, the “125I-TGF-β2 binding, ligand blot” value [4] was “bound”, the “125I-TGF-β1 binding, ligand blot” value [5] was “bound” and the “125I-NGF-β binding, ligand blot” value [6] was “bound”. The Kd [7] was 10 nM, the IC50 [8] was 520 ± 39 nM and the IC50 [9] was 19 ± 3 nM.

In the case of “Thrombospondin: solution-phase inhibitor of TGF-β binding to immobilized α2M-MA [reference compound]”, the IC50 [8] is given as 160 ± 18 nM.
